# From paper PMC12643800
# How the values were obtained:
# [1] = molecular target: Escherichia coli L-asparaginase II (AsnB) expressed in and secreted from Corynebacterium glutamicum (E. coli K-12) (UniProt P00805); test: SEC; Superdex 200 Increase 10/300 GL on FPLC, 0.5 ml/min, 150 ug protein loaded; molecular mass from a calibration curve with carbonic anhydrase, ovalbumin, conalbumin and aldolase; proteins loaded individually
# [2] = molecular target: commercially available asparaginase Ec-AsnB (MEDAC, Germany) (E. coli) (UniProt P00805); test: as above
stoichiometry N [1],stoichiometry N [2],Substance
4,,Escherichia coli L-asparaginase II (AsnB) expressed in and secreted from Corynebacterium glutamicum (from UniProt P00805 23-348) (enzyme)
,4,"commercially available asparaginase Ec-AsnB (MEDAC, Germany) (from UniProt P00805 23-348) (enzyme)"
